Measurements from patent US7053194 (FOX CHASE CANCER CENTER, dated 2006).

Target: T1, GST p53 (amino acids 1-393), GST fusion protein of full-length p53 (human, UniProt P04637 1-393)
T1 construct: not shown: glutathione S-transferase (GST) fusion partner
Assay: in vitro interaction of truncated mSin3a with GST p53
Method: GST-fusion proteins were prepared from E. coli cells as described (Murphy et al., Genes & Devel. 10:2971–2980, 1996). One microgram of GST or fusion protein was bound to glutathione sepharose beads and incubated with 10 uL of ^35S methionine labeled, in vitro translated proteins generated in a coupled transcription/translation system (TNT, Promega). Binding occurred in 300 uL of binding buffer (20 mM Hepes pH 7.9/150 mM KC1/1 mM EDTA/4 mM MgC12/1 mM DTT/0.02% NP-40/10% glycerol) supplemented with protease inhibitors. Proteins were bound for 30 minutes at 4 degrees, and bound complexes were washed three times in wash buffer with constant vortexing (20 mM Hepes pH 7.9/150 mM KC1/1 mM EDTA/4 mM MgCl2/1 mM DTT/0.1% NP-40/10% glycerol). Bound proteins were eluted in 1× Laemmli sample buffer and separated on 7.5% or 10% SDS-PAGE. […] Bound complexes were washed twice in NP-40 buffer, once in RIPA buffer, and resolved on SDS-PAGE.

T1 sequence (P04637 whole entry, the tested form may be a part): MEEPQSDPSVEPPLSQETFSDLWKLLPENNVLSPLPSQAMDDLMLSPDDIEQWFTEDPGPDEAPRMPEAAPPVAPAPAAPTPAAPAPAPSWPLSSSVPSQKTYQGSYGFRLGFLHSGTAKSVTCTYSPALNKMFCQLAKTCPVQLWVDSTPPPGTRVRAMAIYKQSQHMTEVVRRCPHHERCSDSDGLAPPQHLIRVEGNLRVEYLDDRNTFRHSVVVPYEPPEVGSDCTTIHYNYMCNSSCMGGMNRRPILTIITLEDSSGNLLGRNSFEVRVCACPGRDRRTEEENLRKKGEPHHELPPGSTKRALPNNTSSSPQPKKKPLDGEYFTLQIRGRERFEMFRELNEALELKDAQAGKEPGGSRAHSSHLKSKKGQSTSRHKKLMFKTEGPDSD

binding result | Binder
no binding | truncated mSin3a, amino acids 297-386 (PAH 2) (other, UniProt Q60520 297-386, looked up, range 297-386) QNNQPVEFNHAINYVNKIKNRFQGQPDIYKAFLEILHTYQKEQRNAKEAGGNYTPALTEQEVYAQVARLFKNQEDLLSEFGQFLPDANSS
binds | truncated mSin3a, amino acids 297-529 (PAH2-3) (other, UniProt Q60520 297-529, looked up, range 297-529) QNNQPVEFNHAINYVNKIKNRFQGQPDIYKAFLEILHTYQKEQRNAKEAGGNYTPALTEQEVYAQVARLFKNQEDLLSEFGQFLPDANSSVLLSKTTAEKVDSVRNDHGGTVKKPQLNNKPQRPSQNGCQIRRHSGTGATPPVKKKPKLMSLKESSMADASKHGVGTESLFFDKVRKALRSAEAYENFLRCLVIFNQEVISRAELVQLVSPFLGKFPELFNWFKNFLGYKESV
no binding | truncated mSin3a, amino acids 112-192 (paired amphipathic helix 1) (other, UniProt Q60520 112-192, looked up, range 112-192; Printed PAM is read as PAH1; also called PAM (so in the source); PAH1) VQGQQQFQRLKVEDALSYLDQVKLQFGSQPQVYNDFLDIMKEFKSQSIDTPGVISRVSQLFKGHPDLIMGFNTFLPPGYKI
